The values below come from article PMC4002122 (Chemical Research in Toxicology, 2014).

The target of series [1] is T1, UGT1A9 (Homo sapiens, UniProt O60656).
T1 sequence (O60656 26-530): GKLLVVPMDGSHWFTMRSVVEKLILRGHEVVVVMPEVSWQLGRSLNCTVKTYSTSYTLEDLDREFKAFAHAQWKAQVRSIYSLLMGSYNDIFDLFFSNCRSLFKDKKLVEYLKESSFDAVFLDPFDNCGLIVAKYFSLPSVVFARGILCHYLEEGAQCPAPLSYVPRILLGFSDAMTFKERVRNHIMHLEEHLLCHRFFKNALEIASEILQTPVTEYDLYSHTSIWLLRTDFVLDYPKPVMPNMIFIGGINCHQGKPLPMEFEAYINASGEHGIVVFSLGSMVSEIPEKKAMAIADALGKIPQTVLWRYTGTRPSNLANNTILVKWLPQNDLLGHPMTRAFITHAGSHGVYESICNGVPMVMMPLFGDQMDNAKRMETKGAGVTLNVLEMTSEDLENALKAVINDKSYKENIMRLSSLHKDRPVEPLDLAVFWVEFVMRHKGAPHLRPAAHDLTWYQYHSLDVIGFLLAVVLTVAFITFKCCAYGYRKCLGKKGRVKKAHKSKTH
The note with it: cited from earlier work; for Km: affinity of UGT1A9 for tRes and natural analogs.

The target of series [2] is T2, UGT1A1 (Homo sapiens, UniProt P22309).
T2 sequence (P22309 26-533): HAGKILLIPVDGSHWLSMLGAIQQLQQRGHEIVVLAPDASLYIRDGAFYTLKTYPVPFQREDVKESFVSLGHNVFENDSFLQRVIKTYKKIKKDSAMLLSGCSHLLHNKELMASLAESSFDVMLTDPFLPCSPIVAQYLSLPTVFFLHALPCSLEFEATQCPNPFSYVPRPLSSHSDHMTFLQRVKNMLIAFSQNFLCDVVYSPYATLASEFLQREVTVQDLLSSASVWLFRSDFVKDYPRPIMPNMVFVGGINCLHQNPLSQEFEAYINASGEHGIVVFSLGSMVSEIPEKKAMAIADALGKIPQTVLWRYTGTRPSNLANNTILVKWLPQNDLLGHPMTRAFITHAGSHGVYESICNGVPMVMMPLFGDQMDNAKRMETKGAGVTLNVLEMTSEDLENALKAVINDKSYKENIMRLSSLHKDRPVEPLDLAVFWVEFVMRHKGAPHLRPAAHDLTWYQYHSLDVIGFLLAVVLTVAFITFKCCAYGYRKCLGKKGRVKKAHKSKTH
The note with it: tRes-3-O-glucuronidation; cited from earlier work.

Substrate in series [3]: COc1ccc(/C=C(/C(=O)O)c2cc(OC)c(OC)c(OC)c2)cc1O
The series can be described thus: Steady state kinetics of glucuronidation by recombinant UGT1A8. Type of series: in vitro ADME, human. As to conditions: other: NI-12a-O-gluc formation, UDP-GlcUA 3 mM, 60 min, 37 °C.

Substrate in series [4]: COc1ccc(/C=C(/C(=O)O)c2cc(OC)c(OC)c(OC)c2)cc1O
The series can be described thus: Steady state kinetics of glucuronidation by recombinant UGT1A7. In kind it is in vitro ADME, human. As to conditions: other: NI-12a-O-gluc formation, UDP-GlcUA 3 mM, 60 min, 37 °C.

Substrate in series [5]: COc1ccc(/C=C(/C(=O)O)c2cc(OC)c(OC)c(OC)c2)cc1O
The experiment in a line: Steady state kinetics of glucuronidation by recombinant UGT1A10. In kind it is in vitro ADME, human. As to conditions: other: NI-12a-O-gluc formation; UDP-GlcUA 3 mM, 60 min, 37 °C.

Substrate in series [6]: COc1ccc(C=Cc2cc(OC)cc(OC)c2/C=N/O)cc1
Described as above. In kind it is in vitro ADME, human. The note with it: other: NI-ST-05–N–O-gluc formation; Hill equation (S50).

Substrate in series [7]: COc1ccc(/C=C(/C(=O)O)c2cc(OC)c(OC)c(OC)c2)cc1O
The series can be described thus: Steady state kinetics of glucuronidation by recombinant UGT1A9. Type of series: in vitro ADME, human. As to conditions: other: NI-12a-O-gluc formation, UDP-GlcUA 3 mM, 60 min, 37 °C.

Substrate in series [8]: COc1ccc(C=Cc2cc(OC)cc(OC)c2/C=N/O)cc1
The experiment in a line: Steady state kinetics of glucuronidation by recombinant UGT1A1. Type of series: in vitro ADME, human. The note with it: other: NI-ST-05–N–O-gluc formation; estimated based on an incomplete data set.

By Km is commonly meant the concentration of substrate that gives half-maximal velocity. Consider `CC(C)/C=C/c1c(O)cc(/C=C/c2ccc(O)cc2)cc1O` [tA3], for which, in series [1], the Km was 21 µM.

In general, Vmax refers to the rate approached at saturating substrate. Consider `Oc1ccc(/C=C/c2cc(O)cc(O)c2)cc1` [tRes, trans-3,5,4′-trihydroxystilbene], for which the values for the maximum rate (Vmax) in series [2] and in series [1] (tRes-3-O-glucuronide formation) were 31 nmol/mg/min and 2.5 nmol/mg/min, respectively. Moreover, the Michaelis constant (Km) in series [1] is 2.5 µM.

Take trans-arachidin-1 [tA1]: the Km in series [1] was 190 µM.

B1: UGT1A8 (Homo sapiens) (protein)
chain: GKLLVVPMDGSHWFTMQSVVEKLILRGHEVVVVMPEVSWQLGKSLNCTVKTYSTSYTLEDLDREFMDFADAQWKAQVRSLFSLFLSSSNGFFNLFFSHCRSLFNDRKLVEYLKESSFDAVFLDPFDACGLIVAKYFSLPSVVFARGIACHYLEEGAQCPAPLSYVPRILLGFSDAMTFKERVRNHIMHLEEHLFCQYFSKNALEIASEILQTPVTAYDLYSHTSIWLLRTDFVLDYPKPVMPNMIFIGGINCHQGKPLPMEFEAYINASGEHGIVVFSLGSMVSEIPEKKAMAIADALGKIPQTVLWRYTGTRPSNLANNTILVKWLPQNDLLGHPMTRAFITHAGSHGVYESICNGVPMVMMPLFGDQMDNAKRMETKGAGVTLNVLEMTSEDLENALKAVINDKSYKENIMRLSSLHKDRPVEPLDLAVFWVEFVMRHKGAPHLRPAAHDLTWYQYHSLDVIGFLLAVVLTVAFITFKCCAYGYRKCLGKKGRVKKAHKSKTH
As for B1, in series [3], the Km amounted to 240 ± 76 µM, the maximum rate (Vmax) turned out to be 6.0 ± 1.3 nmol/mg/min and the Vmax/Km amounted to 25 µL/min/mg.

B2: UGT1A7 (Homo sapiens) (protein)
chain: GKLLVVPMDGSHWFTMQSVVEKLILRGHEVVVVMPEVSWQLGRSLNCTVKTYSTSYTLEDQDREFMVFADARWTAPLRSAFSLLTSSSNGIFDLFFSNCRSLFNDRKLVEYLKESCFDAVFLDPFDACGLIVAKYFSLPSVVFARGIFCHYLEEGAQCPAPLSYVPRLLLGFSDAMTFKERVWNHIMHLEEHLFCPYFFKNVLEIASEILQTPVTAYDLYSHTSIWLLRTDFVLEYPKPVMPNMIFIGGINCHQGKPVPMEFEAYINASGEHGIVVFSLGSMVSEIPEKKAMAIADALGKIPQTVLWRYTGTRPSNLANNTILVKWLPQNDLLGHPMTRAFITHAGSHGVYESICNGVPMVMMPLFGDQMDNAKRMETKGAGVTLNVLEMTSEDLENALKAVINDKSYKENIMRLSSLHKDRPVEPLDLAVFWVEFVMRHKGAPHLRPAAHDLTWYQYHSLDVIGFLLAVVLTVAFITFKCCAYGYRKCLGKKGRVKKAHKSKTH
B2: in series [4], the Michaelis-Menten constant (Km) was found to be 62 ± 43 µM, the maximal velocity (Vmax) worked out at 2.2 ± 0.77 nmol/mg/min and the Vmax/Km was determined as 35 µL/min/mg.

B3: UGT1A10 (Homo sapiens) (protein)
chain: GKLLVVPMDGSHWFTMQSVVEKLILRGHEVVVVMPEVSWQLERSLNCTVKTYSTSYTLEDQNREFMVFAHAQWKAQAQSIFSLLMSSSSGFLDLFFSHCRSLFNDRKLVEYLKESSFDAVFLDPFDTCGLIVAKYFSLPSVVFTRGIFCHHLEEGAQCPAPLSYVPNDLLGFSDAMTFKERVWNHIVHLEDHLFCQYLFRNALEIASEILQTPVTAYDLYSHTSIWLLRTDFVLDYPKPVMPNMIFIGGINCHQGKPLPMEFEAYINASGEHGIVVFSLGSMVSEIPEKKAMAIADALGKIPQTVLWRYTGTRPSNLANNTILVKWLPQNDLLGHPMTRAFITHAGSHGVYESICNGVPMVMMPLFGDQMDNAKRMETKGAGVTLNVLEMTSEDLENALKAVINDKSYKENIMRLSSLHKDRPVEPLDLAVFWVEFVMRHKGAPHLRPAAHDLTWYQYHSLDVIGFLLAVVLTVAFITFKCCAYGYRKCLGKKGRVKKAHKSKTH
In the case of B3, in series [5], the Km came out at 500 ± 75 µM, the Vmax was 3.5 ± 0.24 nmol/mg/min and the Vmax/Km is 7 µL/min/mg. In addition, in series [6], the K0.5 worked out at 6.2 ± 0.35 µM, the Vmax was 0.00065 µmol/min/mg and the Vmax/Km was found to be 105 µL/min/mg.

B4: UGT1A9 (Homo sapiens) (protein)
chain: GKLLVVPMDGSHWFTMRSVVEKLILRGHEVVVVMPEVSWQLGRSLNCTVKTYSTSYTLEDLDREFKAFAHAQWKAQVRSIYSLLMGSYNDIFDLFFSNCRSLFKDKKLVEYLKESSFDAVFLDPFDNCGLIVAKYFSLPSVVFARGILCHYLEEGAQCPAPLSYVPRILLGFSDAMTFKERVRNHIMHLEEHLLCHRFFKNALEIASEILQTPVTEYDLYSHTSIWLLRTDFVLDYPKPVMPNMIFIGGINCHQGKPLPMEFEAYINASGEHGIVVFSLGSMVSEIPEKKAMAIADALGKIPQTVLWRYTGTRPSNLANNTILVKWLPQNDLLGHPMTRAFITHAGSHGVYESICNGVPMVMMPLFGDQMDNAKRMETKGAGVTLNVLEMTSEDLENALKAVINDKSYKENIMRLSSLHKDRPVEPLDLAVFWVEFVMRHKGAPHLRPAAHDLTWYQYHSLDVIGFLLAVVLTVAFITFKCCAYGYRKCLGKKGRVKKAHKSKTH
Consider B4, for which, in series [7], the Km is 240 ± 40 µM, the Vmax stood at 0.0083 µmol/min/mg and the Vmax/Km was 35 µL/min/mg.

B5: UGT1A1 (Homo sapiens) (protein)
chain: HAGKILLIPVDGSHWLSMLGAIQQLQQRGHEIVVLAPDASLYIRDGAFYTLKTYPVPFQREDVKESFVSLGHNVFENDSFLQRVIKTYKKIKKDSAMLLSGCSHLLHNKELMASLAESSFDVMLTDPFLPCSPIVAQYLSLPTVFFLHALPCSLEFEATQCPNPFSYVPRPLSSHSDHMTFLQRVKNMLIAFSQNFLCDVVYSPYATLASEFLQREVTVQDLLSSASVWLFRSDFVKDYPRPIMPNMVFVGGINCLHQNPLSQEFEAYINASGEHGIVVFSLGSMVSEIPEKKAMAIADALGKIPQTVLWRYTGTRPSNLANNTILVKWLPQNDLLGHPMTRAFITHAGSHGVYESICNGVPMVMMPLFGDQMDNAKRMETKGAGVTLNVLEMTSEDLENALKAVINDKSYKENIMRLSSLHKDRPVEPLDLAVFWVEFVMRHKGAPHLRPAAHDLTWYQYHSLDVIGFLLAVVLTVAFITFKCCAYGYRKCLGKKGRVKKAHKSKTH
As to B5, in series [8], the Vmax was 0.00021 ± 2e-05 µmol/min/mg.
